Tested on: Saccharomyces cerevisiae
Assay: transcriptional activation domain activity (GFP:mCherry ratio, weighted mean of sorted bins, harmonized to initial dataset scale) (arbitrary fluorescence ratio units); higher = stronger transcriptional activation
Details: beta-estradiol 1 µM; induction time 4 h
Outline: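 Protein tiles carrying barcodes and fused to an estradiol-inducible synthetic transcription factor were placed at the URA3 locus of yeast diploids with a GFP reporter. Following 4 hours at 30 °C in SC with 1 uM beta-estradiol, cells were sorted into 8 GFP:mCherry bins, barcodes were sequenced, and tiles with fewer than 50 reads were discarded. Activation activity is given as the read-weighted mean of bin median fluorescence, averaged across barcodes and linearly mapped to the initial dataset scale.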

Sequence | transcriptional activation domain activity
MDGDERPRKRARLACTNCNARRVKCDVTDRQPCRNCEIAHAVCETRESKRGKH | 9400
MDGEPANPAVSAPTTRRRRRRPALVCEQCRVRKIKCDRGSPCSKCARGRRSHL | 42000
MDGGLFCVSISLVHFLLLLFPSHPLILRLIFLLFTFHFPVRLYFNFVLLQLLT | 67900
MDGLFFFFFPFFFLFITLPTNFILFLIVGGSSSSLFFFFGFWFLVWFGLVYLC | 27600
MDGSEANRPYHAKKPHRKSRSGCRNCKTRKVKCDESRPTCRACRLRREACAYP | 16600
MDGVFGDCFFFLCFIFVFCFITFFFFFGLLLLLCCYGLDGGYVLVFFFLFFFV | 33500
MDGVFGVCFLCFISVFYLCFIAFFFSILTTTLLLWLRWGAMFLSFFLSCYLFF | 32700
MDGVGLGSHRGSGSSSSSSSSAADRAPRHSTRRKRGRESRGAVVVIAATNRPN | 39200
MDGVLKLPFLSFLFPFFLFFSSPPLFSPCFFPLFLSFFAVIAFFPFLCFCLPV | 29300
MDILDIFFLFYSLLVSFLFFFLLITLLFLSPFISISFYFLTAFYVYFWVFFRA | 34100
MDILDIFFLFYSLLVSFLFFSLLIPPLFLSSFISISFYFFDGVLCVLLGFFFR | 61500
MDISFFMLFVFDDFFLYSYFFFPSPRPLSNDATLIHIVCILFIILVGLTIVLL | 36800
MDIYGSCICPGGLALGEFFYFLFFLVLSSYYYYFLFSFLFLFSLFLSFVVWRF | 49700
MDKFRVLRLVLFRWWLFALCLIRFEVMEALLIHSPRFFEKLILVRTNLYLLCI | 50100
MDKIRKGKVVVVGCGGVGSWAAVMLVRSCVQHFVVYLVCSSIYIIISGVSKIR | 58900
MDKLVQYEHTFLPPPHMQYLSYFDCLENLAHYIDAIHPNNLNMWFFLIYDQCI | 63300
MDLFFLLHFFIFIFLWHWLGSCLVWLFLVWLWGVFSFFFYYIFSCVSFFGSAI | 61300
MDLGEERYRRLVSYLFFSFLYLHFIFLYFSFLWFMACGSWQWLNNLFFFISSF | 63800
MDLGSAVPAPRRRIRDRTSQACNRCRATKIRCDNQAPACSPCRAKKLECIRDP | 37600
MDLVILMVYLNNNNNILIIIIMISTLIIHQLVQLIYLNLWLGCILWKTVLCSG | 42900
MDLVLCIGLFGHIPYHLQYSLPFVSFFFSHNIVHYSEMHYFGVVNSGILWLGF | 63300
MDLYFMDLFIVILWCGFIVYLVYFLFFYYESGLVYLYIINSMGLCCESGVLFV | 67500
MDNIRSKHNHLLTAGWIYAFIDFWCITLRHFLIFIASMLFYGYLCIWCPTILV | 59000
MDNKSSKSPGNIPKHRACDECRSRKLACSKEPDGCARCKRERIKCHYSPQKPM | 34700
MDNQAGEQKPKQRRVADRERKRAVRACDGCRRQKEKCDGGVPCRRCIRLRRQC | 53600

Sequence | transcriptional activation domain activity
MDNTTDLYNYLVDMGLKFLLFWNMVNCKFCHLCLLMPFDITYIIFIFILLLEF | 70300
MDPEQATDAKPPKPPVVRGARACTVCRAAKMKCVGAEDGQKPCQRCKRANVEC | 53000
MDPGLFLMVLLWLSLPLSIVPWNLPMNWCFQSCDTIRPYQARLSGFFLLLLFQ | 48600
MDPQIDSQTPKRPSRGACRECASSKVKCLPQSSTNDGKCERCQLRGKACERRS | 22700
MDPSTRRRVTNIGPLDKRRTLRRCEQCRISRTKCEGGRPCHACRARLVGCRDQ | 41700
MDRQQNGSKRTESVRQPVSCEPCRRRKIKCSRSHPPCDTCRRRRCPDSCVYKS | 43700
MDRVSIRFTLAISLADLGQAVLHMIGSKFSWLSCGLLLGISRFLCLFYIFLSV | 57100
MDSGGRLEVHLFFFLLLFVQMWFSWVYFLFSLVFLTLLTRDLGGLLLLVYSFC | 34700
MDSGTLVGGANADGLVEIPLPGHDSIHLHVTHPRVMFLLTFLVSAACKRDPVS | 27100
MDSLFFFFFLLFFFSSCFGFGCSVGLFLFFSVVCNLYFCLLRSYMYLLALLFT | 51500
MDSQDAGRVSSQGQAVKEKQRSRTGCRTCKSRKVKCDETRGGCRNCERLNLPC | 14700
MDSRPAKRPRKTETEDTLDDTDKKPHKKPPLSCAECRRLKLKVATLAASVIVY | 69000
MDSRPGSFATGVFRAQPVDNTPRKIQKRNRPPVSCLLCRTRKVKCNRQQPCER | 33500
MDTLSSSFAHILCIFFYLHPFLLFFSFSLFPFFVFATPATRTGVRLFYFFFLF | 41600
MDTSNSWFDASKVQSLNFDLQTNSYYSNARGSDPSSYAIEGEYKTLATDDLGN | 14200
MDTTDASRGRSKACTYCNKSKTKCMWAGEPGAGACQRCTRLRRSCILPEKGER | 10200
MDVEAKGRADRDAKRNPTACEHCRAARTRCQPSEQPGVCKKCLALKRECISRT | 16500
MDVGIYVCICFDGLFSFGEFFYVVYTSFINHTIEFLCLFGFHFLFWVLIFFWV | 50900
MDYVWRRVRWIRVRKHMVFIATLLEPFTECMLVCLIGALSARHLFDIRLVVFY | 49000
MEACMSIMMIPMILRNGTVFSFFFRVMLYFTCIVSMAGWLVPGSYWLWFGLVC | 48100
MEAKEGRPGNAFACERCRKHKVRCVPSDAPGICQRCQRARAPCIEHVARRRPA | 31400
MEAREGRAGNAFACERCRKHKVRCVPSGTAGICQRCQKARVECIEHVARRRPA | 29100
MEASFYFSSSSFCSAFLFFYFFILFFWGGFPLFPSQLFLSLSLLFIHTLSLFP | 26700
MEDAADDGAASTKKAKVSKKRKKDIESDGEQEKPAKTPKTKLKLNNKTPKEAS | 48700
MEDAGDDATPATKKGKGMKKRKKGEESDGENEKPAKTPKTKLKLTNKTPKEAS | 36600

Sequence | transcriptional activation domain activity
MEEPSGDASRRRNGPRLYHKKSRLGCIRCKQRRVKCDEKRPACTGCSRHAVEC | 60500
MEFGSWGWKSIFFIFFSFRDFMVWHGGVSFFLPYINDFYIFVLIFYCFIYSAS | 59800
MEFPTPTCFLSFFSFFFHIVFVAYCVAYFSLSRFLFVPSFFFLFLLSYFRLLQ | 67500
MEFSFTMVGIFYFLYSLAWSFSFLFFISYDHSLAGLVTIVKAFLISYYFFIFL | 26200
MEGGRGSRGSHENNELFFFLSLHSRFFFFYLFIYFSLLFFSFTIYFMVFFFFF | 54600
MEGLVVCSVWIFSCVWSLWLALCIWIFCLFVGVWLVRIWRGPGLYLLFFFFFL | 71000
MEGMQVEQDIARGSRKPHRKSRLGCGNCKQRRVKCDERKPSCDRCVKHNILCD | 23800
MEGRHISVIKQLYGLYWLDVWKISLQLWSEVKGMYHVLQQNLWIITLFPFFAA | 64000
MEGRVGGDQKGGGFIFVYGSGVLDWGVFFRFIYISLSFFVWGLFLCVSFAFVL | 41200
MEGSEKAARVAPPAQRVRTGCLTCRKRHLKCDEAKPTCENCRKGRRECVRGLR | 6710
MEGYELRMVALLLFSLLFVVAKKRGVHTNPSRLAVFVVLLRLCFVFCCLLFLA | 85000
MEHFSLFLFRFFFLFFVFLFLRRRGGGFGTGFGFWFLVFGFWFLVFGFWFWLW | 64000
MEHLVYHAPGVLPKMECRPPFRLCLLLLILFLFLFLCCQKVPLWIFACRFCCG | 41200
MEHQDFFGFDYGLFDDNFPITSNSLRYDDLFHFEPLDLEQDDLGWGLPDPSLS | 143000
MEILKLPFYILHVLPLPIRGALATLTPLVRFHTVVVSLSCLLSLRCIYLLFFH | 75300
MELFFGLSFFLAYVPGCYSFLLTILIPLLCYYIFTRYLRCLVLHGLGFFFSLF | 77000
MELFFRLFFWLMSWLLQLTHYFNTFTVLLYIHSLFSGVWFCKVLGFSFFFLYH | 51600
MELLSLLFFLFFFFFLYSLFGYASTLSFLPHHLFSFLTIYFISYFCDILFFEF | 44900
MELSFFSVSSDGDLFFLLLFLIRGVLEKYFFDWYFDLPLWVFVCFFLFVFLTL | 54600
MELVLHCFYLGAIRKPGHTYDSWSSDTPFQLSMIGDSNLLIIWLWLLIPWRSF | 80500
MELYGTHGVFYYYFFVIGFFLDYHSFLSPLLSLLMRIEKDVSGIFFFVFLFFC | 63700
MEPRLGHPALLVYSLLLLLLILRWKMFSFLCVVFQWRCIMLFLVFLVFCWGVG | 35900
MEQSMGFMIHVYITVIPLGDVYEVLVFLILRSILPLPPGFLCLSLLLHDLFFI | 62400
MEQTLATNQSLQPVKRVACNRCRTQKLKCNPSGEGRGSSSKCVRCAKAGTDCT | 38900

Reference: the supplement of paper PMC12636428
